T1: mIL27Rα ECD antigen (mouse, UniProt O70394 25-510)
T1 construct: Antigen of biopanning and PE-ELISA; The immunogen was made as a fusion of the ECD (residues 25-510 of the precursor) with the human IgG1 hinge and Fc; also called ECD of mouse IL27Rα; IL27Rα coated on the plate
T1 sequence: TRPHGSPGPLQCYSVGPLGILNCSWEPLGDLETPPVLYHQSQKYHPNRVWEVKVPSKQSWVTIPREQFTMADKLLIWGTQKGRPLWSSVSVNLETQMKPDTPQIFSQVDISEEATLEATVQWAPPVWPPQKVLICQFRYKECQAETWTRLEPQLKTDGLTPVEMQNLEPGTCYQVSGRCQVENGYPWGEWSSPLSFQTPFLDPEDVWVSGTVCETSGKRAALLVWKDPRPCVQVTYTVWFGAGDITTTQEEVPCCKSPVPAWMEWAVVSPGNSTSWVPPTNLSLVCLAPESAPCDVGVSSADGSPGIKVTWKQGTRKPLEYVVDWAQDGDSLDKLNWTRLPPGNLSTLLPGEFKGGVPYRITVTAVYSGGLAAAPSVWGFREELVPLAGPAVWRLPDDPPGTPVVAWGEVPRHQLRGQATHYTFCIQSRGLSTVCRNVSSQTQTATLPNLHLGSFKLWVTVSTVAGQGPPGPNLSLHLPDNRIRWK


Molecular target: T1, mIL27Rα ECD antigen
Experiment: PE-ELISA, periplasmic extract on antigen-coated plate
Description: Upon completion of the biopanning of Example 3, three 96-well plates of individual phage clones were isolated in order to perform periplasmic extract ELISA (PE-ELISA) on IL27Rα coated plates to identify positive VHH binders that selectively bound […]. A 96-well plate was coated with IL27Rα and PBS under the same conditions. Next, wells were blocked at 37° C. for 1 h. Then, 100 µl of extracted antibodies was added to each well and incubated for 1 h. Subsequently, 100 µl of anti-tag polyclonal antibody conjugated to HRP was added to each well and incubated at 37° C. for 1 h. Plates were developed with TMB substrate. The reaction was stopped by the addition of H2SO4. Absorbance at 450 nm was read on a microtiter plate reader. […] Positive clones were sequenced, and sequences analyzed to identify unique clonotypes.

| Binder | binding result |
| --- | --- |
| mIL27Ra VHH5 (VHH, Camel VHH as periplasmic extract of a phage clone in the PE-ELISA; also called anti-mouse IL27Rα VHH; not shown: HA/His tag from the pMECS phagemid) VHH: QVQLQESGGGSVQAGGSLRLSCAVSGDSTYSMGWFRQPPGKEREGVAAIAKDGITIHADSVKGRFTISKDNAKNTLYLQMNSLKPEDTAMYYCAAHRPYGPPLNPRWYTYWGQGTQVTVSS | binds |
| mIL27Ra VHH8 (VHH, Camel VHH as periplasmic extract of a phage clone in the PE-ELISA; also called anti-mouse IL27Rα VHH; not shown: HA/His tag from the pMECS phagemid) VHH: QVQLQESGGGSVQAGGSLRLSCAVSGDSTYSMGWFRQPPGKEREGVAAIPTDGITIHADSVKGRFTISKDNAKNTLYLQMNSLKPEDTAMYYCAAHRPYGPPLNPRWYTYWGQGTQVTVSS | binds |
| mIL27Ra VHH9 (VHH, Camel VHH as periplasmic extract of a phage clone in the PE-ELISA; also called anti-mouse IL27Rα VHH; not shown: HA/His tag from the pMECS phagemid) VHH: QVQLQESGGGSVQAGGSLRLSCAVSGDSTYSMGWFRQPPGKEREGVAAIAKDGITIHADSVKGRFTISKDNAKNTLYLQMSSLKPEDTAMYYCAAHRPYGPPLNPRWYTYWGQGTQVTVSS | binds |
| mIL27Ra VHH10 (VHH, Camel VHH as periplasmic extract of a phage clone in the PE-ELISA; also called anti-mouse IL27Rα VHH; not shown: HA/His tag from the pMECS phagemid) VHH: QVQLQESGGGSVQAGGSLRLSCAVSGDSTYSMGWFRQPPGKEREGVAAIGKDGITIHADSVKGRFTISKDNAKNTLYLQMNSLKPEDTAMYYCAAHRPYGPPLNPRWYTYWGQGTQVTVSS | binds |
| mIL27Ra VHH14 (VHH, Camel VHH as periplasmic extract of a phage clone in the PE-ELISA; also called anti-mouse IL27Rα VHH; not shown: HA/His tag from the pMECS phagemid) VHH: QVQLQESGGGSVQAGGSLRLSCAVSGDSTYSMGWFRQPPGKEREGVAAITKDGITIHADSVKGRFTISGDNAKNTLYLQMNNLKPEDTAMYYCAAHRPYGPPLNPRWYTYWGQGTQVTVSS | binds |
| mIL27Ra VHH6 (VHH, Camel VHH as periplasmic extract of a phage clone in the PE-ELISA; also called anti-mouse IL27Rα VHH; not shown: HA/His tag from the pMECS phagemid) VHH: QVQLQESGGGSVQAGGSLRLSCAASGYTYSSYCMAWFRQAPGKEREGVAAIDSDGSTSYADSVKGRFTISKDNAKNTLYLQMNSLKPEDTAMYYCAAASGRCLGPGIRSLIWGQGTQVTVSS | binds |
| mIL27Ra VHH7 (VHH, Camel VHH as periplasmic extract of a phage clone in the PE-ELISA; also called anti-mouse IL27Rα VHH; not shown: HA/His tag from the pMECS phagemid) VHH: QVQLQESGGGSVQAGGSLRLSCAVSGDSTYSMGWFRQPPGKEREGVAAITKDITIHADSVKGRFTISKDNAKNTLYLQMNSLKPEDTAMYYCAAHRPYGPPLNPRWYTYWGQGTQVTVSS | binds |
| mIL27Ra VHH11 (VHH, Camel VHH as periplasmic extract of a phage clone in the PE-ELISA; also called anti-mouse IL27Rα VHH; not shown: HA/His tag from the pMECS phagemid) VHH: QVQLQESGGGSVQAGGSLRLSCAVSGDSTYSMGWFRQPPGKEREGVAAITKDITIHADSVKGRFTISKDNAKNTLYLQMNSLRPEDTAMYYCAAHRPYGPPLNPRWYTYWGQGTQVTVSS | binds |
